According to patent US11198713B2, “Agents modulating beta-catenin functions and methods thereof” (FOG PHARMACEUTICALS, INC., priority 2017, dated 2021):
Numbered stars: 1 amine (or outer) side, 2 acyl side, 3 side chain; on linkers, the order of the positions; unused ones are H or OH. Bridge positions count the residues as written; N and C are the ends. Square brackets hold non-standard residues; d marks the D form. Primed or numbered codes have the meaning given here. * marks the point of attachment. MC″ = Monomer C = PyrR, pyrrolidine stapling residue bearing Alloc (allyl carbamate on pyrrolidine N); R6″ = stapling residue, (R)-2-(5-hexenyl)alanine (drawn only), C=CCCCC[C@@](C)(N[*:1])C(=O)[*:2]; MB = Monomer B = PyrS, Alloc-pyrrolidine stapling residue (allyl carbamate on pyrrolidine N); R6 = (R)-2-(5-hexenyl)alanine, C=CCCCC[C@@](C)(N[*:1])C(=O)[*:2]; S6 = (S)-2-(5-hexenyl)alanine, C=CCCCC[C@](C)(N[*:1])C(=O)[*:2]; MB(14) = Monomer B = PyrS, Alloc-pyrrolidine stapling residue; MF = Monomer F (SdN), acyclic alkyl-N(Alloc) stapling residue; Biotin = O=C1N[C@H]2[C@H](CS[C@H]2CCCCC(=O)*)N1; PEG3′ = PEG3 linker, CAS# 557756-85-1; R8 = C=CCCCCCC[C@@](C)(N)C(=O)O; S8 = C=CCCCCCC[C@](C)(N)C(=O)O; R5 = C=CCCC[C@@](C)(N)C(=O)O; S5 = C=CCCC[C@](C)(N)C(=O)O

T1: full-length beta-catenin (UniProt P35222 2-781, limits assumed)
T1 construct: mature; also called full-length ß-Catenin; β-catenin
T1 sequence (looked up): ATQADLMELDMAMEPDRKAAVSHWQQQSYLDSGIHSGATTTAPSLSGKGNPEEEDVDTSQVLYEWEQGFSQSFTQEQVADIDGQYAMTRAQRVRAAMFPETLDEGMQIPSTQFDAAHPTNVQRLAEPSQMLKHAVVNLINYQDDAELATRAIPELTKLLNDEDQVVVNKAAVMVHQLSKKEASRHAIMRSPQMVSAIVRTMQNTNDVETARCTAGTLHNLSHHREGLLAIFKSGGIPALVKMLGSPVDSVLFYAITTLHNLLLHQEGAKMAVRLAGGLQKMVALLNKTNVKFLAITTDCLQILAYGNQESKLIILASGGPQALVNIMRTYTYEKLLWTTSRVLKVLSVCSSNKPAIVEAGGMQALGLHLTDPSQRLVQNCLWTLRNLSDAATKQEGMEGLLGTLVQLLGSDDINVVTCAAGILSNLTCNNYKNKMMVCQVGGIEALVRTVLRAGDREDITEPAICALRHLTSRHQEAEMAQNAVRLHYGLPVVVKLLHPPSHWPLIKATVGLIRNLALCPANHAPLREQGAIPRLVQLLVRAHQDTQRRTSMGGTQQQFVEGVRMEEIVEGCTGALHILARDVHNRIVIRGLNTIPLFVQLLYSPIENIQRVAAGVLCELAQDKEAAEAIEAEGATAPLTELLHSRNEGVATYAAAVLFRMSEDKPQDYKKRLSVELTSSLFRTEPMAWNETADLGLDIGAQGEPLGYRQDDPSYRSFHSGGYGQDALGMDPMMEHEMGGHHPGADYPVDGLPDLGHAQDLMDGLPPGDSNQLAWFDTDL

B1: FP0507a (peptide)
peptide: Ac-A[MI]ILDAHI[S6]RVW-NH2
modifications: staple 2-9; also: amino staple MI/S6 (-N(R')-, after CO2 extrusion from carbamate staple), olefin E/Z not given here
B2: FP0006a (peptide)
peptide: Ac-PA[MC″]ILDAHV[S8]RVW-NH2
modifications: staple 3-10; also: amino staple: carbamate CO2 extruded after metathesis, staple: amino staple (-N(R')-, CO2 extruded from carbamate staple)
B3: FP0217rc (peptide)
peptide: AXILDAHIXRVW
modifications: Ac-A-R8-I-L-D-A-H-I-MB-R-V-W-NH2; carbamate staple R8/MB with the olefin reduced to -CH2-CH2-
notes: also called FPO217rc

These binders were tested against T1, full-length beta-catenin (assay: competition FP, grade of FP EC50 (+++: <=100 nM)).
Experimental: In some embodiments, a competition fluorescence polarization assay is used to assess binding of provided compounds to beta-catenin. In an exemplary procedure, solutions of provided compounds, e.g., provided stapled peptides, were prepared in a buffer (e.g., 50 mM Tris pH 8.0, 250 mM NaCl, 2% glycerol, 0.5 mM EDTA, 0.02% w/v sodium azide) using a 3-fold serial dilution from 5 µM. Probe solution (15 nM full-length ß-Catenin, 20 nM FITC labeled peptide in buffer) was prepared and incubated for a period of time, e.g., 5 minutes, and the a volume, e.g., 40 µL per well plated in suitable plate, e.g., a black polystyrene 384-well plate (Corning). Equal volume of the serial diluted peptide was added to the plate and incubated protected from light for 15 minutes prior to read. Reads were performed on a Spectramax M5 (Molecular Devices) in duplicate. Suitable probe was FITC-PEG1-PQ-S5-ILD-S5-HVRRVWR (SEQ ID NO: 1) (hydrocarbon staple formed by two S5 via olefin metathesis) and/or FITC-bA-PQ-S5-ILD-S5-HVRRVWR (SEQ ID NO: 3) (hydrocarbon staple formed by two S5 via olefin metathesis). […] Another peptide, FPO217c (Ac-AR_8ILDAHIM$B5$RVW (SEQ ID NO: 280), with N-terminal proline removed and valine replaced with isoleucine compared to FP0025c) was prepared.

| FP EC50 | Binder |
| --- | --- |
| ≤ 100 nM | B1 |
| ≤ 100 nM | Ac-A[R5]ILDAHI[MH]RVW-NH2 (staple 2-9; not fully specified; printed as Ac-A-R5-I-L-D-A-H-I-MH-R-V-W-NH2) [FP0510c Isomer 2] |
| ≤ 100 nM | B2 |
| ≤ 100 nM | AXILDAHIXRVW (not fully specified; Ac-A-R8-I-L-D-A-H-I-S5-R-V-W-NH2; hydrocarbon staple R8/S5) [FP0217s Isomer 2] |
| ≤ 100 nM | AXILDAHIXRVW (not fully specified; Ac-A-MI-I-L-D-A-H-I-MG-R-V-W-NH2; carbamate staple MI/MG) [FP0588c] |
| ≤ 100 nM | AXILDAHIXRVW (not fully specified; Ac-A-R5-I-L-D-A-H-I-MH-R-V-W-NH2; carbamate staple R5/MH) [FP0510c Isomer 1] |
| ≤ 100 nM | Ac-A[R6″]ILDAHI[MH]RVW-NH2 (staple 2-9) [FP0511a] |
| ≤ 100 nM | AXILDAHIXRVW (not fully specified; Ac-A-MG-I-L-D-A-H-I-MC-R-V-W-NH2; carbamate staple MG/MC) [FP0598c] |
| ≤ 100 nM | AXILDAHIXRVW (not fully specified; Ac-A-ME-I-L-D-A-H-I-MB-R-V-W-NH2; carbamate staple ME/MB) [FP0604c] |
| ≤ 100 nM | AXILDAHIXRVW (not fully specified; Ac-A-ME-I-L-D-A-H-I-MF-R-V-W-NH2; carbamate staple ME/MF) [FP0601c] |
| ≤ 100 nM | Ac-A[R6″]ILDAHI[MH]RVW-NH2 (staple 2-9; not fully specified; printed as Ac-A-R6-I-L-D-A-H-I-MH-R-V-W-NH2) [FP0511c Isomer 2] |
| ≤ 100 nM | {Biotin-PEG3′}-A[R8]ILDAHI[MB]RVW-NH2 (staple 2-9) [FP0217c_btn] |
| ≤ 100 nM | Ac-A[R6″]ILDAHI[MH]RVW-NH2 (staple 2-9; not fully specified; printed as Ac-A-R6-I-L-D-A-H-I-MH-R-V-W-NH2) [FP0511c Isomer 1] |
| ≤ 100 nM | AXILDAHIXRVW (not fully specified; Ac-A-ME-I-L-D-A-H-I-S8-R-V-W-NH2; carbamate staple ME/S8) [FP0335c Isomer 2] |
| ≤ 100 nM | Ac-A[R6]ILDAHI[MF]RVW-NH2 (staple 2-9; also: carbamate staple, isomer 1, olefin geometry not assigned, also called FP0502c (Peak 1)) [FP0502c Isomer 1] |
| ≤ 100 nM | B3 |
| ≤ 100 nM | AXILDAHIXRVW (not fully specified; Ac-A-R8-I-L-D-A-H-I-S5-R-V-W-NH2; hydrocarbon staple R8/S5) [FP0217s Isomer 1] |
| ≤ 100 nM | Ac-A[MI]ILDAHI[S5]RVW-NH2 (staple 2-9; also: carbamate staple, olefin geometry not assigned) [FP0506c Isomer 2] |
| ≤ 100 nM | AXILDAHIXRVW (not fully specified; Ac-A-MI-I-L-D-A-H-I-MF-R-V-W-NH2; carbamate staple MI/MF) [FP0587c] |
| ≤ 100 nM | Ac-A[R8]ILDAHI[MB(14)]RVW-NH2 [FP0217u] |
| ≤ 100 nM | Ac-[R8]ILDAHI[MB(14)]RVW-NH2 (staple 1-8) [FP0220c] |
